Laboratory results reported in patent US20200199244A1 (published 2020).
Positions count from the first letter of the chain named. Several values for one entry are separate records, joined by “and”; a condition that tells them apart may be missing. Equal entries are not always repeated.

B1: BMS3h-198-14 (other)
VH: EVQLLESGGGLVQPGGSLRLSCAASGFTFAGYEMWWFRQAPGKGLERVSAISGSGGSTYYADSVKGRFTISRDDTKNTLYLQMNSLRAEDTAVYYCAKDPYSFDYWRQGTLVTVSS
notes: dAb, single VH
B2: BMS3h-198-11 (other)
VH: B1 VH with F37V, T75S, K98R, R107G, T113S
notes: dAb, single VH
B3: BMS3h-198-22 (other)
VH: B1 VH with F37V, T75S, D99E, F103Y, R107G, Q108H
notes: dAb, single VH
B4: BMS3h-198-37 (other)
VH: B1 VH with M34L, F37V, T75S, W106R, R107G
notes: dAb, single VH
B5: BMS3h-198-38 (other)
VH: B1 VH with M34L, F37V, T75S, K98R, R107G
notes: dAb, single VH
B6: BMS3h-198-10 (other)
VH: B1 VH with F27S, F29I, F37V, T75S, R107G
notes: dAb, single VH
B7: BMS3h-198-19 (other)
VH: B1 VH with M34L, F37V, T75S, K98R, W106R, R107G
notes: dAb, single VH
B8: BMS3h-198-17 (other)
VH: B1 VH with F37V, T75S, K98R, R107G
notes: dAb, single VH
B9: BMS3h-198-33 (other)
VH: B1 VH with F37V, T75S, D99E, F103Y, R107G
notes: dAb, single VH
B10: BMS3h-198-31 (other)
VH: B1 VH with F37V, D74N, T75S, Y95H, D99E, F103Y, R107G
notes: dAb, single VH
B11: BMS3h-198-32 (other)
VH: B1 VH with D74N, T75S, Y105N, R107G
notes: dAb, single VH
B12: BMS3h-198-34 (other)
VH: B1 VH with F37V, T75S, Y105N, R107G
notes: dAb, single VH
B13: BMS3h-193-12 (other)
VL: DIQMTQSPSSLSASVGDRVTITCRASQTIERRLNWYQQKPGKAPKLLIYLASRLQSGVPSRFSGSGSGTDFTLTISSLQPEDFATYYCHQYESPPLTFGQGTKVEIKR
notes: dAb, single VK
B14: BMS3h-193-30 (other)
VL: B13 VL with T28S
notes: dAb, single VK
B15: BMS3h-193-10 (other)
VL: B13 VL with T5S, S10T, T97M
notes: dAb, single VK
B16: BMS3h-193-18 (other)
VL: B13 VL with E30G, T69S
notes: dAb, single VK
B17: BMS3h-193-27 (other)
VL: B13 VL with E30G
notes: dAb, single VK
B18: BMS3h-193-26 (other)
VL: B13 VL with T28P
notes: dAb, single VK
B19: BMS3h-193-25 (other)
VL: B13 VL with K45R, S52T
notes: dAb, single VK
B20: BMS3h-193-7 (other)
VL: B13 VL with M4I, A43D
notes: dAb, single VK
B21: BMS3h-193-19 (other)
VL: B13 VL with D70E
notes: dAb, single VK
B22: BMS3h-193-11 (other)
VL: B13 VL with A43D
notes: dAb, single VK
B23: BMS3h-198-1 (other)
VH: B1 VH with F27S, F29I, F37V, T75S, K98R, R107G
B24: BMS3h-198-28 (other)
VH: B1 VH with T75S, Y105N, R107G
B25: BMS3h-198-5 (other)
VH: B1 VH with F37V, T75S, Y95H, D99E, F103Y, R107G
B26: BMS3h-198-2 (other)
VH: B1 VH with L4P, F37V, V48I, T75S, K98R, R107G
B27: BMS3h-198-24 (other)
VH: B1 VH with F37V, T75S, D99E, Y105S, R107G
B28: BMS3h-198-19 (other)
VH: B1 VH with M34L, F37V, T75S, K98R, W106R, R107G
B29: BMS3h-193-29 (other)
VL: B13 VL with S52T
B30: BMS3h-56-7 (other)
VH: EVQLLESGGGLVQPGGSLRLSCAASGFTFRDYEMWWVRQAPGKGLERVSAINPQGTRTYYADSVKGRFTISRDNSKNTLYLQMNSLRAEDTSVYHCAKPPFIFGDWGPGTLVTVSS
notes: domain antibody (dAb): single human VH domain
B31: BMS3h-56-9 (other)
VH: B30 VH with K65M, S92A, H95Y, P99L, I102M, G104D, W106R, P108Q
notes: as for B30
B32: BMS3h-37-2 (other)
VH: EVQLLESGGGLVQPGGSLRLSCAASGFTFEWYEMQWVRRAPGKGLEWVSAISGDGYRTYYADSVKGRFTISRDNSKNTLYLQMNSLRAEDTAVYYCAKELGYFDYWGRGTLVTVSS
notes: as for B30
B33: BMS3h-37-9 (other)
VH: B32 VH with A23V, R39Q, K43N, V48I
notes: as for B30
B34: BMS3h-198-1 (other)
VH: B1 VH with F27S, F29I, F37V, T75S, K98R, R107G
notes: as for B30
B35: BMS3h-37-5 (other)
VH: B32 VH with R39Q, V48I, W106R, G107V, R108Q
notes: as for B30
B36: BMS3h-38-1 (other)
VH: EVQLLGSGGGLVQPGGSLRLSCAASGFTFEEEEMIWVRQAPGKGLEWVSAISGSGGSTYYADSVKGRFTISRDNSKNTLYLQMNSLRAEDTAVYYCSKEPFRFDYWGQGTLVTVSS
notes: as for B30
B37: BMS3h-41-1 (other)
VH: EVQLLESGEGLVQPGGSLRLSCAASGFTFTEHEMIWVRQAPGKGLEWVSSISGNGANTYYADSVKGRFTISRDNSKNTLYLQMNSLRPEDTAVYYCAKEPLRFDYWGQGTLVTVSS
notes: as for B30
B38: BMS3h-38-3 (other)
VH: B36 VH with G6A, V48I, S97G
notes: as for B30
B39: BMS3h-38-2 (other)
VH: B36 VH with G6A, S97G, F103Y
notes: as for B30
B40: BMS3h-43-1 (other)
VH: EVQLLESGGGLVQPGGSLRLSCTASGFTFNMYEMSWVRQAPGKGLEWVSGISRRGFTTYYADSVKGRFTISRDNSKNTLYLQMNSLRAEDTAVYYCAKEPITYDLRYARFDYSGQGTLVTVSS
notes: as for B30
B41: BMS3h-43-3 (other)
VH: B40 VH with S75F, L105M, S113G
notes: as for B30
B42: BMS3h-193-25 (other)
VL: B13 VL with K45R, S52T
notes: domain antibody (dAb): single human V kappa domain
B43: BMS3h-131-2 (other)
VL: DIQMTQSPSSLSASVGDRVTITCRADSSILWALAWYQQKPGKAPKLLIESSSGLQSGVPSRFSGSGSGTDFTLTISSLQPEDFATYYCVQNAVWPGTFGQGTKVEIKR
notes: as for B42
B44: BMS3h-202-5 (other)
VH: EVQLLESGGGLVQPGGSLRLSCAASGFTFPTAEMLWVRQAPGKGLEWVSSISASGGSTYYADSVKGRFTISRDNSKNTLYLQMNSLRAEDTAVYYCAKEPVSYVATFDYWGQGTLVTVSS
notes: as for B30

The binders below were run against T1, human CD40 (BMS, CY24FEB06-01) (human, UniProt P25942 21-193) (assay: ELISA RBA, competition with IZ-CD40L;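 note: Neutravidin-coated 384-well plate, dAb–human CD40 complex bound for 2 h at room temperature, absorbance read at 450 nm after HCl stop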).
T1 construct: Soluble reagent of the bead and ELISA RBA; It is detected with an anti-human IgG (Fc) mAb, so it may be a CD40-Ig fusion
T1 sequence (P25942 21-193 limits assumed): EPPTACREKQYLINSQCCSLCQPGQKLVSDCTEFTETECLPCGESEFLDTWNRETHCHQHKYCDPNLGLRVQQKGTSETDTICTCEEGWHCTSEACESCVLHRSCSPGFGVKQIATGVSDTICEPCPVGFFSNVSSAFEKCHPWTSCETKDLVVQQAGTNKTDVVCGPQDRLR
Method: Clear walled High Bind, 384-well plates (Corning, UK) were coated with 25 μl of 1 μg/ml Neutravidin in 0.2 M carbonate-bicarbonate buffer, pH 9.4 overnight at 4° C. The following day, assay plates were washed with 0.1% (v/v) Tween PBS buffer, blocked with 1% (w/v) BSA in PBS for 1 hour at room temperature and washed again. […] Following washing of the assay plate, the dAb:human CD40 complex was incubated in the assay plate at room temperature for 2 hours with gentle agitation. […] Absorbance signal was measured using a SpectraMax® M5e plate reader (Molecular Devices) at 450 nm following neutralization with 1M HCl solution.

Binder | EC50
B1 | 9 nM
B2 | 20 nM
B3 | 10 nM
B4 | 15.1 nM
B5 | 7.2 nM
B6 | 35 nM
B7 | 7.9 nM
B8 | 20 nM
B9 | 8.7 nM
B10 | 6.1 nM
B11 | 24.7 nM
B12 | 32.6 nM
B13 | 200 nM
B14 | 290 nM and 116 nM
B15 | 200 nM
B16 | 100 nM
B17 | 100 nM
B18 | 100 nM
B19 | 140 nM
B20 | 300 nM
B21 | 100 nM
B22 | 300 nM

Each binder was assayed against human CD40 (human, UniProt P25942 21-277) (assay: cell-based or functional assay).
human CD40, sequence (P25942 21-277 limits assumed): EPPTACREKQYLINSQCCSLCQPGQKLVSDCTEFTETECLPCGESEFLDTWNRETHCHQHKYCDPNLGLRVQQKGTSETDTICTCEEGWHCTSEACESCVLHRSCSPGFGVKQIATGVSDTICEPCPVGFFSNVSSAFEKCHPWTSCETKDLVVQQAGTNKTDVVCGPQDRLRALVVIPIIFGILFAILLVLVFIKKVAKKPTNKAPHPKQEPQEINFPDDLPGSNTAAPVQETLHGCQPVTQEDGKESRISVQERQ

Binder | hIZCD40L-driven Human B Cell Proliferation EC50 [nM]
B23 | 64
B24 | 20
B25 | 9
B26 | 207
B27 | 34
B28 | 19
B29 | 1380

What follows are binders tested against T2, biotinylated human CD40 (BMS) (human, UniProt P25942 21-193, limits assumed, biotinylated (sites not given)) (assay: BIAcore SPR, immobilised biotinylated human CD40, 1:1 fit;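 note: binding kinetics of dAbs flowed over the CD40 surface at 25 °C in HBS-EP, 300 s dissociation, signal corrected by reference cell and buffer blank, global Langmuir fit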).
T2 construct: Ligand immobilised on the streptavidin BIAcore chip
T2 sequence (P25942 21-193 limits assumed): as the sequence (P25942 21-193 limits assumed) above

Binder | Kd [nM] | koff [s⁻¹] | kon [M⁻¹ s⁻¹]
B30 | 3.5 | 0.00047 | 130000
B31 | 2.6 | 0.00039 | 150000
B32 | 4 | 0.00041 | 100000
B33 | 12 | 0.00018 | 15000
B34 | 13 | 0.00018 | 15000
B35 | 5.5 | 0.00022 | 39000
B36 | 33 | 0.0011 | 32000
B37 | 11 | 0.00056 | 51000
B38 | 5.5 | 0.00041 | 75000
B39 | 12 | 0.00075 | 61000
B40 | 140 | 0.00063 | 4400
B41 | 19 | 0.00059 | 31000
B42 | 81 | 0.037 | 460000
B43 | 21 | 0.0017 | 79000
B44 | 300 | 0.0013 | 4400
